{"source": "patent US6855515B1", "about": "“Autoantigenic fragments, methods and assays” (Merck & Co., Inc., priority 1998, dated 2005)", "molecules": {"B1": {"name": "NOR-90: autoantigen (protein, UniProt P17480 1-764, looked up)", "Nucleolar transcription …": "MNGEADCPTDLEMAAPKGQDRWSQEDMLTLLECMKNNLPSNDSSKFKTTESHMDWEKVAFKDFSGDMCKLKWVEISNEVRKFRTLTELILDAQEHVKNPYKGKKLKKHPDFPKKPLTPYFRFFMEKRAKYAKLHPEMSNLDLTKILSKKYKELPEKKKMKYIQDFQREKQEFERNLARFREDHPDLIQNAKKSDIPEKPKTPQQLWYTHEKKVYLKVRPDATTKEVKDSLGKQWSQLSDKKRLKWIHKALEQRKEYEEIMRDYIQKHPELNISEEGITKSTLTKAERQLKDKFDGRPTKPPPNSYSLYCAELMANMKDVPSTERMVLCSQQWKLLSQKEKDAYHKKCDQKKKDYEVELLRFLESLPEEEQQRVLGEEKMLNINKKQATSPASKKPAQEGGKGGSEKPKRPVSAMFIFSEEKRRQLQEERPELSESELTRLLARMWNDLSEKKKAKYKAREAALKAQSERKPGGEREERGKLPESPKRAEEIWQQSVIGDYLARFKNDRVKALKAMEMTWNNMEKKEKLMWIKKAAEDQKRYERELSEMRAPPAATNSSKKMKFQGEPKKPPMNGYQKFSQELLSNGELNHLPLKERMVEIGSRWQRISQSQKEHYKKLAEEQQKQYKVHLDLWVKSLSPQDRAAYKEYISNKRKSMTKLRGPNPKSSRTTLQSKSESEEDDEEDEDDEDEDEEEEDDENGDSSEDGGDSSESSSEDESEDGDENEEDDEDEDDDEDDDEDEDNESEGSSSSSSSSGDSSDSDSN"}, "B2": {"name": "CENP B: autoantigen (protein)", "chain": "GPKRRQLTFREKSRIIQEVEENPDLRKGEIARRFNIPPSTLSTILKNKRAILASERKYGVASTCRKTNKLSPYDKLEGLLIAWFQQIRAAGLPVKGIILKEKALRIAEELGMDDFTASNGWLDRFRRRHGVVSCSGVARARARNAAPRTPAAPASPAAVPSEGSGGSTTGWRAREEQPPSVAEGYASQDVFSATETSLWYDFLPDQAAGLCGGDGRPRQATQRLSVLLCANADGSEKLPPLVAGKSAKPRAGQAGLPCDYTANSKGGVTTQALAKYLKALDTRMAAESRRVLLLAGRLAAQSLDTSGLRHVQLAFFPPGTVHPLERGVVQQVKGHYRQAMLLKAMAALEGQDPSGLQLGLTEALHFVAAAWQAVEPSDIAACFREAGFGGGPNATITTSLKSEGEEEEEEEEEEEEEEGEGEEEEEEGEEEEEEGGEGEELGEEEEVEEEGDVDSDEEEEEDEESSSEGLEAEDWAQGVVEAGGSFGAYGAQEEAQCPTLHFLEGGEDSDSDSEEEDDEEEDDEDEDDDDDEEDGDEVPVPSFGEAMAYFAMVKRYLTSFPIDDRVQSHILHLEHDLVHVTRKNHARQAGVRGLGHQS"}, "B3": {"name": "La: autoantigen (protein, UniProt P05455 1-408, looked up)", "Lupus La protein": "MAENGDNEKMAALEAKICHQIEYYFGDFNLPRDKFLKEQIKLDEGWVPLEIMIKFNRLNRLTTDFNVIVEALSKSKAELMEISEDKTKIRRSPSKPLPEVTDEYKNDVKNRSVYIKGFPTDATLDDIKEWLEDKGQVLNIQMRRTLHKAFKGSIFVVFDSIESAKKFVETPGQKYKETDLLILFKDDYFAKKNEERKQNKVEAKLRAKQEQEAKQKLEEDAEMKSLEEKIGCLLKFSGDLDDQTCREDLHILFSNHGEIKWIDFVRGAKEGIILFKEKAKEALGKAKDANNGNLQLRNKEVTWEVLEGEVEKEALKKIIEDQQESLNKWKSKGRRFKGKGKGNKAAQPGSGKGKVQFQGKKTKFASDDEHDEHDENGATGPVKRAREETDKEEPASKQQKTENGAGDQ"}, "B4": {"name": "Fibrilliarin: autoantigen (protein)", "chain": "MKPGFSPRGGGFGGRGGFGDRGGRGGRGGFGGGRGRGGGFRGRGRGGGGGGGGGGGGGRGGGGFHSGGNRGRGRGGKRGNQSGKNVMVEPHRHEGVFICRGKEDALVTKNLVPGESVYGEKRVSISEGDDKIEYRAWNPFRSKLAAAILGGVDQIHIKPGAKVLYLGAASGTTVSHVSDIVGPDGLVYAVEFSHRSGRDLINLAKKRTNIIPVIEDARHPHKYRMLIAMVDVIFADVAQPDQTRIVALNAHTFLRNGGHFVISIKANCIDSTASAEAVFASEVKKMQQENMKPQEQLTLEPYERDHAVVVGVYRPPPKVKN"}, "B5": {"name": "Histidyl tRNA synthetase (Jo-1): autoantigen targeted in autoimmune myositis (protein)", "chain": "AERAALEELVKLQGERVRGLKQQKASAELIEEEVAKLLKLKAQLGPDESKQKFVLKTPKGTRDYSPRQMAVREKVFDVIIRCFKRHGAEVIDTPVFELKETLMGKYGEDSKLIYDLKDQGGELLSLRYDLTVPFARYLAMNKLTNIKRYHIAKVYRRDNPAMTRGRYREFYQCDFDIAGNFDPMIPDAECLKIMCEILSSLQIGDFLVKVNDRRILDGMFAICGVSDSKFRTICSSVDKLDKVSWEEVKNEMVGEKGLAPEVADRIGDYVQQHGGVSLVEQLLQDPKLSQNKQALEGLGDLKLLFEYLTLFGIDDKISFDLSLARGLDYYTGVIYEAVLLQTPAQAGEEPLGVGSVAAGGRYDGLVGMFDPKGRKVPCVGLSIGVERIFSIVEQRLEALEEKIRTTETQVLVASAQKKLLEERLKLVSELWDAGIKAELLYKKNPKLLNQLQYCEEAGIPLVAIIGEQELKDGVIKLRSVTSREEVDVRREDLVEEIKRRTGQPLCIC"}, "B6": {"name": "Isoleucyl tRNA synthetase (O.J.): autoantigen targeted in autoimmune myositis (protein)", "chain": "MLQQVPENINFPAEEEKILEFWTEFNCFQECLKQSKHKPKFTFYDGPPFATGLPHYGHILAGTIKDIVTRYAHQSGFHVDRRFGWDCHGLPVEYEIDKTLGIRGPEDVAKMGITEYNNQCRAIVMRYSAEWKSTVSRLGRWIDFDNDYKTLYPQFMESVWWVFKQLYDKGLVYRGVKVMPFSTACNTPLSNFESHQNYKDVQDPSVFVTFPLEEDETVSLVAWTTTPWTLPSNLAVCVNPEMQYVKIKDVARGRLLILMEARLSALYKLESDYEILERFPGAYLKGKKYRPLFDYFLKCKENGAFTVLVDNYVKEEEGTGVVHQAPYFGAEDYRVCMDFNIIRKDSLPVCPVDASGCFTTEVTDFAGQYVKDADKSIIRTLKEQGRLLVATTFTHSYPFCWRSDTPLIYKAVPSWFVRVENMVDQLLRNNDLCYWVPELVREKRFGNWLKDARDWTISRNRYWGTPIPLWVSDDFEEVVCIGSVAELEELSGAKISDLHRESVDHLTIPSRCGKGSLHRISEVFDCWFESGSMPYAQVHYPFENKREFEDAFPADFIAEGIDQTRGWFYTLLVLATALFGQPPFKNVIVNGLVLASDGQKMSKRKKNYPDPVSIIQKYGADALRLYLINSPVVRAENLRFKEEGVRDVLKDVLLPWYNAYRFLIQNVLRLQKEEEIEFLYNENTVRESPNITDRWILSFMQSLIGFFETEMAAYRLYTVVPRLVKFVDILTNWYVRMNRRRLKGENGMEDCVMALETLFSVLLSLCRLMAPYTPFLTELMYQNLKVLIDPVSVQDKDTLSIHYLMLPRVREELIDKKTESAVSQMQSVIELGRVIRDRKTIPIKYPLKEIVVIHQDPEALKDIKSLEKYIIEELNVRKVTLSTDKNKYGIRLRAEPDHMVLGKRLKGAFKAVMTSIKQLSSEELEQFQKTGTIVVEGHELHDEDIRLMYTFDQATGGTAQFEAHSDAQALVLLDVTPDQSMVDEGMAREVINRIQKLRKKCNLVPTDEITVYYKAKSEGTYLNSVIESHTEFIFTTIKAPLKPYPVSPSDKVLIQEKTQLKGSELEITLTRGSSLPGPACAYVNLNICANGSEQGGVLLLENPKGDNRLDLLKLKSVVTSIFGVKNTELAVFHDETEIQNQTDLLSLSGKTLCVTAGSAPSLINSSSTLLCQYINLQLLNAKPQECLMGTVGTLLLENPLGQNGLTHQGLLYEAAKVFGLRSRKLKLFLNETQTQEITEDIPVKTLNMKTVYVSVLPTTADF"}, "B7": {"name": "Alanyl tRNA synthetase (PL-12): autoantigen targeted in autoimmune myositis (protein)", "chain": "MDSTLTASEIRQRFIDFFKRNEHTYVHSSATIPLDDPTLLFANAGMNQFKPIFLNTIDPSHPMAKLSRAANTQKCIRAGGKHNDLDDVGKDVYHHTFFEMLGSWSFGDYFKELACKMALELLTQEFGIPIERLYVTYFGGDEAAGLEADLECKQIWQNLGLDDTKILPGNMKDNFWEMGDTGPCGPCSEIHYDRIGGRDAAHLVNQDDPNVLEIWNLVFIQYNREADGILKPLPKKSIDTGMGLERLVSVLQNKMSNYDTDLFVPYFEAIQKGTGARPYTGKVGAEDADGIDMAYRVLADHARTITVALADGGRPDNTGRGYVLRRILRRAVRYAHEKLNASRGFFATLVDVVVQSLGDAFPELKKDPDMVKDIINEEEVQFLKTLSRGRRILDRKIQSLGDSKTIPGDTAWLLYDTYGFPVDLTGLIAEEKGLVVDMDGFEEERKLAQLKSQGKGAGGEDLIMLDIYAIEELRARGLEVTDDSPKYNYHLDSSGSYVFENTVATVMALRREKMFVEEVSTGQECGVVLDKTCFYAEQGGQIYDEGYLVKVDDSSEDKTEFTVKNAQVRGGYVLHIGTIYGDLKVGDQVWLFIDEPRRRPIMSNHTATHILNFALRSVLGEADQKGSLVAPDRLRFDFTAKGAMSTQQIKKAEEIANEMIEAAKAVYTQDCPLAAAKAIQGLRAVFDETYPDPVRVVSIGVPVSELLDDPSGPAGSLTSVEFCGGTHLRNSSHAGAFVIVTEEAIAKGIRRIVAVTGAEAQKALRKAESLKKCLSVMEAKVKAQTAPNKDVQREIADLGEALATAVIPQWQKDELRETLKSLKKVMDDLDRASKADVQKRVLEKTKQFIDSNPNQPLVILEMESGASAKALNEALKLFKMHSPQTSAMLFTVDNEAGKITCLCQVPQNAANRGLKASEWVQQVSGLMDGKGGGKDVSAQATGKNVGCLQEALQLATSFAQLRLGDVKN"}}}
{"target": "T1, granzyme B (Homo sapiens, UniProt P10144)", "T1 construct": "Some of these preparations were used for the further purification of granzyme B (Tschopp, 1994); endogenous in cells; host or cells: YT cells (human NK cell line), cytoplasmic granules", "T1 sequence (P10144 21-247)": "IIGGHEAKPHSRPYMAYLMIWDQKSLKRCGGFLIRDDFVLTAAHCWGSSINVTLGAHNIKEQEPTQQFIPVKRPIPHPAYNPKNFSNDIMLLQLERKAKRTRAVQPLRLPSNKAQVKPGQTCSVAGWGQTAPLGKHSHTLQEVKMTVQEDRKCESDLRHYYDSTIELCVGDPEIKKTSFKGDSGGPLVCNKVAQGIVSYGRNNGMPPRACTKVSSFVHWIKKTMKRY", "assay": "Susceptibility of autoantigens to cleavage by purified granzyme B (HeLa lysate immunoblot or immunoprecipitates)", "type": "biochemical", "details": "in vitro", "protocol": "To determine whether susceptibility to direct cleavage by granzyme B was an isolated feature of PARP, NuMA and DNA-PKcs shown above, or whether it was a more general feature of autoantigens, a variety of well-defined autoantigens selected from across the spectrum of systemic autoimmune diseases were tested for susceptibility to cleavage by purified granzyume B. The efficiency of cleavage of the substrates by purified granzyme B was also noted (Table 3). Initially, a series of autoantibodies of well-defined specificity were used to immunoblot lysates of HeLa cells that had been incubated in vitro with or without granzyme B. Lysates were pre-treated with iodoacetamide (IAA) to prevent interference by endogenous caspase activity.\nTo perform these studies, HeLa cells were radiolabeled with [^35S] methionine/cysteine, and proteins were immunoprecipitated using human autoantibodies. Protein A-agarose beads containing washed precipitated proteins were resuspended in buffer supporting the activity of granzyme B, and incubated in the absence or presence of added purified granzyme B. Reaction products were visualized using SDS-PAGE and fluorography. To confirm the validity of this approach, several different autoantigens known to be cleaved by granzyme B, as well as several autoantigens and non-autoantigens that are not cleaved by granzyme B, were tested. Using autoantibodies that both immunoblot and immunprecipitate, the cleavage profiles obtained using granzyme B to cleave molecules in lysates (followed by detection with immunoblotting), and after immunoprecipitation (from [^35S]methionine-labeled HeLa lysate) were compared. Identical results were obtained using these 2 methods for cleaved autoantigens (topoisomerase-1, Mi-2, RNA polymerase II large subunit, Ku-70, PARP, and NOR-90), uncleaved autoantigens (Ku-80, Ro 60k), and control substrates (β-tubulin, vinculin). […] Of note, all these additional autoantigens (with the exception of RNA polymerase I) are targeted in autoimmune myositis. However, two other tRNA synthetases (threonyl tRNA synthetase and glycyl tRNA synthetase) that are also autoantigens in autoimmune myositis, were not cleaved using this approach."}
{"molecule": "B1", "susceptibility to cleavage by granzyme B": "efficiently cleaved"}
{"molecule": "B2", "susceptibility to cleavage by granzyme B": "efficiently cleaved"}
{"molecule": "B3", "susceptibility to cleavage by granzyme B": "efficiently cleaved"}
{"molecule": "B4", "susceptibility to cleavage by granzyme B": "efficiently cleaved"}
{"molecule": "B5", "susceptibility to cleavage by granzyme B": "cleaved"}
{"molecule": "B6", "susceptibility to cleavage by granzyme B": "cleaved"}
{"molecule": "B7", "susceptibility to cleavage by granzyme B": "cleaved"}
